Measured values taken from patent US20140170142A1 (AstraZeneca / MedImmune, published 2014).
Positions count from the first letter of the chain named. Names may count otherwise.

T1: mouse FcRn (mouse, UniProt Q61559 22-297; P01887 21-119, limits assumed)
T1 construct: also called mFcRn
T1 sequence (looked up): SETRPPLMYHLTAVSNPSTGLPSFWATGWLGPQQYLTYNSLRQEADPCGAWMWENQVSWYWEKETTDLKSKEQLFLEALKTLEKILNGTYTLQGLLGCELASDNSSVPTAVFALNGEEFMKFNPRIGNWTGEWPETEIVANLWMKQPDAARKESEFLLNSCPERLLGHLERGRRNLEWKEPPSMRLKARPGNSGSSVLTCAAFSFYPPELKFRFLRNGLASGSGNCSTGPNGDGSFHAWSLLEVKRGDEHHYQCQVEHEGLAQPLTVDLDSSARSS
T1 sequence (b2m, looked up): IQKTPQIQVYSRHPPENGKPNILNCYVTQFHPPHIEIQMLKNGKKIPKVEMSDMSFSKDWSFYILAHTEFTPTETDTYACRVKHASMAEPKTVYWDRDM

B1: ABD-Fc: fusion of unmodified ABD and unmodified Fc (Fc fusion)
chain: LAEAKVLANRELDKYGVSDYYKNLINNAKTVEGVKALIDEILAALPGAEPRGPTIKPCPPCKCPAPNLLGGPSVFIFPPKIKDVLMISLSPIVTCVVVDVSEDDPDVQISWFVNNVEVHTAQTQTHREDYNSTLRVVSALPIQHQDWMSGKEFKCKVNNKDLPAPIERTISKPKGSVRAPQVYVLPPPEEEMTKKQVTLTCMVTDFMPEDIYVEWTNNGKTELNYKNTEPVLDSDGSYFMYSKLRVEKKNWVERNSYSCSVVHEGLHNHHTTKSFSRTPGKGGGGSEQKLISEEDLGGGGSHHHHHH
notes: also called wild type ABD-Fc; ABD-Fc parental construct
B2: ABD-Fc (His 310): knockout substitution in Fc region of Igg2A H310A (Fc fusion)
chain: B1 chain with H144A
notes: also called ABD-(His310TM)-Fc
B3: ABD-TM-Fc: triple knockout mutations of ABD residues S18A; T20A and Y21A (Fc fusion)
chain: B1 chain with S18A, Y20A, K22A
notes: T20A/Y20A; Y21A)

Key:
[1] = target: T2, mouse serum albumin (mouse, UniProt P07724 25-608); test: SPR (BIAcore 3000), CM5 chip, PBS pH 7.5
T2 construct: also called MSA; mouse albumin
Text: (§1) The interaction between different ABD-Fc variants and MSA (mouse serum albumin), HSA (human serum albumin) and mFcRn were monitored by surface plasmon resonance detection using BIAcore 3000 instrument. (GE Healthcare). First, ABD-Fc variants were coupled to dextran matrix of CM5 sensor chip using an Amine Coupling Kit at a surface density of 1000-2000 RU according to manufacturer's instructions. Human and mouse albumin as well mouse FcRn were flown over in a test-bind experiments at the concentrations ranging from 0.1-10 μM at a flow rate of 5 μl/min. Dilution and binding experiments were carried out in PBS pH7.5; 150 mM NaCl; 0.005% Tween for albumin binding and 50 mM NaPhosphate pH6.0; 150 mM NaCl; 0.005% Tween for mouse FcRn. Subsequently, the format of the Biacore experiments were flipped where mouse and human albumin as well as mouse FcRn were coupled to a CM5 chip using Amine Coupling Kit at surface densities ranging from 500-1500 RU. The ABD-Fc variants were flown over at three different concentrations 0.5; 1 and 10 μM. The latter format was more successful due to higher signal and self-consistency.

[2] = target: T1, mouse FcRn; test: SPR (BIAcore 3000), CM5 chip, pH 6.0, three concentrations of injectant
Text: as §1

[3] = target: T3, human serum albumin (human, UniProt P02768 25-609); test: SPR (BIAcore 3000), CM5 chip, PBS pH 7.5
T3 construct: also called HSA; human albumin
T3 sequence (P02768 25-609 limits assumed): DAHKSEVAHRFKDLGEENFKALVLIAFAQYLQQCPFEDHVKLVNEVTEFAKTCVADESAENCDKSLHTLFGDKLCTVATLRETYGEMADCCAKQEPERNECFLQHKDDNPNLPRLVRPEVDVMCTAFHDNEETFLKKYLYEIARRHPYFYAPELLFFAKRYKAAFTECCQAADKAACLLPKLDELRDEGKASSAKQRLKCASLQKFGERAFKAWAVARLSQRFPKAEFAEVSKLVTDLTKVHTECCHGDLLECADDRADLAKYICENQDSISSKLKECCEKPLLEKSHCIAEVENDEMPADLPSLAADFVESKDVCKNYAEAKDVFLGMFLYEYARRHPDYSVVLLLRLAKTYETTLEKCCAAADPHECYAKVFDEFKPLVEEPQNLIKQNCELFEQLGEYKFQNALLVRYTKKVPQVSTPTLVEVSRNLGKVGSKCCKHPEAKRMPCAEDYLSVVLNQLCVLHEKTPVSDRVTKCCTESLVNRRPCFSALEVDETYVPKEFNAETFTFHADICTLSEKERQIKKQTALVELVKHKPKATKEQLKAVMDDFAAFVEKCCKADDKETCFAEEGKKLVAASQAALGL
Text: as §1

[4] = target: T2, mouse serum albumin; test: SPR (BIAcore 3000), CM5 chip, three concentrations of injectant
Text: as §1

[5] = target: T3, human serum albumin; test: as above
Text: as §1

Row | Binder | binding result [1] | binding result [2] | binding result [3] | binding result [4] | binding result [5]
1 | B1 | binds | – | – | – | –
2 | B2 | binds | no binding (tested: 10 µM) | binds | – | –
3 | B3 | – | – | – | no binding (tested: 10 µM) | no binding (tested: 10 µM)
